From patent US20080064629A1, “Amphiregulin as a Protective Agent in Acute Hepatic Injury” (priority 2004, published 2008)

Assays:
isolated rat hepatocytes = assay: TGFα and CT-1 gene expression in cultured rat hepatocytes treated with AR; assay type: cell-based; details: AR treatment, different periods of time
Method: Hepatocytes were isolated from male Wistar rats (150 g) and C57/BL6 mice (20 g) by perfusion with collagenase (Gibco-BRL, Paisley, UK) as described elsewhere [(18), (20)]. Cells (5×10^5 cells per well) were plated onto 6-well plates coated with collagen (type I collagen, Collaborative Biomedical, Bedford, Mass., USA). Cultures were maintained in MEM medium supplemented with 10% fetal calf serum (FCS), non-essential amino acids, glutamine 2 mM and antibiotics (all supplied by Gibco-BRL). After 2 h of incubation, the medium was removed and cells were again cultured in the same medium with 5% FCS. […]
Total RNA was extracted using TRI reagent (Sigma). […] PCR products were subjected to electrophoresis in 2% agarose gels, followed by staining with ethidium bromide and quantification using Molecular Analyst software (Bio-Rad, Hercules, Calif., USA). […]
Real time PCR was performed using an iCycler (BioRad) and iQ SYBR Green Supermix (Bio-Rad). In order to monitor the specificity of final PCR products, the latter were analysed by fusion curves and electrophoresis. The amount of each transcript was expressed as n-fold the difference versus expression of the reference gene (β-actin)(2^ΔCt, where ΔCt represents the difference in threshold cycle between target genes and control gene).

male C57/BL6 mice = assay: Acute liver damage induced by Jo2 antibody (Fas activation) in mice, treatment with AR; assay type: in vivo, mouse
Method: The experiments were carried out in compliance with the guidelines of the University of Navarra relating to the use of laboratory animals. Cirrhosis was induced with CCl4 in male Wistar rats as described elsewhere [(16) Castilla-Cortazar, I., Garcia, M., Muguerza, B., Quiroga, J., Perez, R., Santidrian, S., Prieto, J. 1997. Hepatoprotective effects of insulin-like growth factor I in rats with carbon tetrachloride-induced cirrhosis. Gastroenterology 113:1682-1691). Two-thirds PH or sham operations were performed on male Wistar rats (150 g) and male C57/BL6 mice (20 g) according to the method of Higgins and Andersen [(17) Higgins, G. M., Andersen, R. M. 1931. Experimental pathology of liver: restoration of liver of the white rat following partial surgical removal. Arch. Pathol. 12:186-202. (18) Latasa, M. U., Boukaba, A., García-Trevijano, E. R., Torres, L., Rodríguez, J. L., Caballería, J., Lu, S. C., López-Rodas, G., Franco, L., Mato, J. M., et al. 2001. Hepatocyte growth factor induces MAT2A expression and histone acetylation in rat hepatocytes. Role in liver regeneration. FASEB J. 10.1096/fj.00-0556fje. (19) Chen, L., Zeng, Y., Yang, H., Lee, T. D., French, S. W., Corrales, F. J., García-Trevijano, E. R., Avila, M. A., Mato, J. M., and Lu, S. C. 2004. Impaired liver regeneration in mice lacking methionine adenosyltransferase 1A. FASEB J. 18: 914-916]. Following sedation, in the sham operated animals the liver was exposed and then returned to the abdominal cavity. Acute liver damage was induced in male C57/BL6 mice (20 g) (n=3-5 per condition and time point) by means of a single intraperitoneal injection of CCl4 (1 μl/g body weight in olive oil) (Sigma, St. Louis, Mo., USA) or Jo2 monoclonal antibody (4 μg/mouse in saline solution) (BD PharMingen, San Diego, Calif., USA) [(5),(20) Martínez-Chantar, M. L., Corrales, F. J., Martínez-Cruz, A., García-Trevijano, E. R., Huang, Z. Z., Chen, L. X., Kanel, G., Avila, M. A., Mato, J. M., Lu, S. C. 2002. Spontaneous oxidative stress and liver tumors in mice lacking methionine adenosyltransferase 1A. FASEB J. 10.1096/fj.02-0078fje]. The controls received an equivalent volume of olive oil or saline solution. In the cases indicated, the mice received an intraperitoneal injection of human recombinant AR (9.5 μg/mouse) (Sigma) 6 and 0.5 h before and 3 h after Jo2 antibody, or 0.5 h before and 12 h after CCl4. At the indicated timepoints, mice were subjected to blood sampling and the sera were analysed for alanine and aspartate aminotransferase (ALT and AST) as described elsewhere [(16) and (21) Lasarte, J. J., Sarobe, P., Boya, P., Casares, N., Arribillaga, L., López-Díaz of Cerio, A., Gorraiz, M., Borrás-Cuesta, F., Prieto, J. 2003. A recombinant adenovirus encoding hepatitis C virus core and E1 proteins protects mice against cytokine-induced liver damage. Hepatology 37: 461-470]. Mice were sacrificed by cervical dislocation, and the livers were quickly frozen in liquid nitrogen, or fixed in formalin and embedded in paraffin for staining with hematoxylin and eosin (H&E).
Caspase-3 activity in mouse hepatocytes and liver tissue lysates was assessed using the Caspase-3/CPP32 colorimetric assay kit (BioVision, Palo Alto, Calif., USA). Cells in culture (5×10^5 per condition) were lysed directly in the lysis buffer supplied with the kit after the corresponding treatments. Liver tissue was homogenized using a Dounce homogenizer in lysis buffer, followed by centrifugation at 15,000 rpm during 10 min. […]

B1: amphiregulin (protein)
chain: SVRVEQVVKPPQNKTESENTSDKPKRKKKGGKNGKNRRNRKKKNPCNAEFQNFCIHGECKYIEHLEAVTCKCQQEYFGERCGEKSMKTHSMIDSSLSK
notes: polypeptide growth factor belonging to the EGF family, ligand of EGF receptor; human recombinant AR (Sigma) used
For B1, the “levels of mRNA encoding CT-1” value (isolated rat hepatocytes) was “increased”, the “levels of mRNA encoding TGFα” value (isolated rat hepatocytes) was “increased” and the “serum transaminase (AST and ALT) elevation” value (male C57/BL6 mice; 12 h after Jo2 (4 μg/mouse i.p.), AR 9.5 μg/mouse i.p. 6 and 0.5 h before and 3 h after Jo2) was “strongly suppressed”. The “liver damage by histopathological analysis” value (male C57/BL6 mice; 12 h after Jo2, AR 9.5 μg/mouse i.p. 6 and 0.5 h before and 3 h after Jo2) was “almost completely avoided liver damage”, the “induction of caspase-3 activity in mouse liver extracts” value (male C57/BL6 mice; 12 h after Jo2 injection, AR 9.5 μg/mouse i.p.) was “strongly inhibited” and the “levels of Bcl-xL protein in liver (Western blot)” value (male C57/BL6 mice; AR and Jo2 versus Jo2 alone, 6 h after injection of Jo2, 12 h (figure legend)) was “greater”. The “rupture of caspase-3 (p17 subunit of active caspase-3, Western blot) in liver” value (male C57/BL6 mice; liver extracts after Jo2 injection, AR 9.5 μg/mouse i.p.) was “avoided”.
